The values below come from PMC12723722, “Phosphorylation event changes the RNA binding mode of EZH2 disordered segment”.

One data set has as its target EZH2 loop WT (UniProt Q15910 340-435). Nature of the data set: EMSA; small but clear shift; EMSA: LightShift RNA EMSA kit protocol, 1-2 nM refolded RNA, 30 min room temperature, 4 or 6% native PAGE, 0.5x TBE; MST: Monolith NT.115, standard treated capillaries, 40% MST power; binding buffer, salt and pH not given in the material. Particulars: protein: recombinant; tags: His tag implied (pET22b, HisTrap); label: 3' biotin (EMSA); Cy5 aminoallyl-UTP for labelled RNA; hairpin (predicted).

A further data set deals with Thymosin beta 4 (Tβ4) (UniProt P62328 2-44, not fully specified). As to the kind of experiment: EMSA; EMSA: LightShift RNA EMSA kit protocol, 1-2 nM refolded RNA, 30 min room temperature, 4 or 6% native PAGE, 0.5x TBE; MST: Monolith NT.115, standard treated capillaries, 40% MST power; binding buffer, salt and pH not given in the material. Particulars: protein: recombinant; label: 3' biotin (EMSA); Cy5 aminoallyl-UTP for labelled RNA; hairpin (predicted).
Sequence of Thymosin beta 4 (Tβ4) (P62328 2-44): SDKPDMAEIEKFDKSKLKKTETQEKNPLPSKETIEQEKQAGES

Sequence of EZH2 loop WT (Q15910 340-435): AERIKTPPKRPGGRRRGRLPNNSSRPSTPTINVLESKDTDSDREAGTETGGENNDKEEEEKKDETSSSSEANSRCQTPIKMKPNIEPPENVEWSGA

On to AAGAAUGGCCUCGCGGAGGCAUGCGUCAUGCUAGCGUGCGGGGUACUCUU (structured_RNA) [R50], for which the values for the binding result in the data set with EZH2 loop WT and with Thymosin beta 4 (Tβ4) were “binds” and “no binding”, respectively.
